# Measurements: publication PMC10583174
# Molecular target: glucagon receptor (GCGR) (mouse (endogenous in primary hepatocytes)) (UniProt Q61606)
# Experiment: radioligand binding
# UniProt Q61606, sequence (Q61606 27-485): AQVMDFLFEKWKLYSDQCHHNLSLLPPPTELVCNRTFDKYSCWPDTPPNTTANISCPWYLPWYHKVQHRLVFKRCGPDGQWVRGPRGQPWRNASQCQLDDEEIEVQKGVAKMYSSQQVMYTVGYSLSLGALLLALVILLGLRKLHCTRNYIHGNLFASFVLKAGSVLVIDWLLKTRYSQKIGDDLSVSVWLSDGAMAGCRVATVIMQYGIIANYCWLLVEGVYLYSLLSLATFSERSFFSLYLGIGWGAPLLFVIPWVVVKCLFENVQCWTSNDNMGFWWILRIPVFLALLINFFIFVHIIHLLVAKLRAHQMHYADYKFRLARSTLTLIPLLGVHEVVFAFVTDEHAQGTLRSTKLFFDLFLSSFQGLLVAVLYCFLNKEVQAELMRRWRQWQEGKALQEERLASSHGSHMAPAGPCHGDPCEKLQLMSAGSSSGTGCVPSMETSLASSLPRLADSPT
substance,measurement,value
glucagon (human) (peptide),"fold Kd, GNE LKO over GNE WT hepatocytes",10 fold
